Experimental data published in article PMC8708666 (2021).

B1: Collagen alpha-6(IV) chain peptide 30 (peptide)
chain: DPGFPGMKGK
B2: Collagen alpha-6(IV) chain peptide 19 (peptide)
chain: GPPGSIVKKG
B3: Collagen alpha-6(IV) chain peptide 8 (peptide)
chain: NKESGFPGLR
B4: Collagen alpha-6(IV) chain peptide 10 (peptide)
chain: KGARGDRGSG
B5: Collagen alpha-6(IV) chain peptide 5 (peptide)
chain: GFQGEKGVKG
B6: Collagen alpha-6(IV) chain peptide 25 (peptide)
chain: FKGTKGRDGL
B7: Collagen alpha-6(IV) chain peptide 4 (peptide)
chain: LAPGSFKGMK

Each binder was assayed against Integrin alpha1beta1 (Homo sapiens, UniProt P56199) (assay: MST).
Integrin alpha1beta1, sequence (P56199 29-1141, chain 1 of 2): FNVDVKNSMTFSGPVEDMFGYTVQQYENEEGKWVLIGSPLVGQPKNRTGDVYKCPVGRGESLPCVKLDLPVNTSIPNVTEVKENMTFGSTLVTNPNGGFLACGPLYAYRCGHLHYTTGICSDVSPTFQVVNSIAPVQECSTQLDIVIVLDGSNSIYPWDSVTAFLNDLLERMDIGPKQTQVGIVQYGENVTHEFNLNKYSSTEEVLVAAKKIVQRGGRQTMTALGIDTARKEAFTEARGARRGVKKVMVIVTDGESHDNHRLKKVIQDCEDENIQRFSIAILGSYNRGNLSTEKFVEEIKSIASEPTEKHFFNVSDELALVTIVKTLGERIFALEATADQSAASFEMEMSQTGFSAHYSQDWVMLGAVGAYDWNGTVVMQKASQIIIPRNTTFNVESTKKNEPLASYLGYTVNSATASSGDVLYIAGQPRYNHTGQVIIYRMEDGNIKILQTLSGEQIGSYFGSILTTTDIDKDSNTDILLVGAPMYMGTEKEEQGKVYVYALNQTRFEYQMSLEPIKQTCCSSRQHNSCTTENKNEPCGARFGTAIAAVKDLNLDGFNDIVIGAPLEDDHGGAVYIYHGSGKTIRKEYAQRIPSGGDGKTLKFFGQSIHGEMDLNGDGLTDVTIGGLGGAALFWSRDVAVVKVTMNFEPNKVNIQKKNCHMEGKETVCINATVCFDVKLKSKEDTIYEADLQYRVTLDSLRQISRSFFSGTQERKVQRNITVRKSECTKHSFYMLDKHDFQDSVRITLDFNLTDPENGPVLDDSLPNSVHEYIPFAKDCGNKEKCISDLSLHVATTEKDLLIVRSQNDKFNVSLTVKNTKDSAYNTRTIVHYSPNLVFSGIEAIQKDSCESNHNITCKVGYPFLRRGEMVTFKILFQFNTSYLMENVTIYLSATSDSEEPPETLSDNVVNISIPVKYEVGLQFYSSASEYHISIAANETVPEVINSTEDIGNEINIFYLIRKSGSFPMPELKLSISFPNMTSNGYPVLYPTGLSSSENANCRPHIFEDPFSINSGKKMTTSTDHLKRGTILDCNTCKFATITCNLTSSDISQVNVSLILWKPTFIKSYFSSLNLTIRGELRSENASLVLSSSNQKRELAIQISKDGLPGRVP
Integrin alpha1beta1, sequence (chain, as listed by the source, chain 2 of 2): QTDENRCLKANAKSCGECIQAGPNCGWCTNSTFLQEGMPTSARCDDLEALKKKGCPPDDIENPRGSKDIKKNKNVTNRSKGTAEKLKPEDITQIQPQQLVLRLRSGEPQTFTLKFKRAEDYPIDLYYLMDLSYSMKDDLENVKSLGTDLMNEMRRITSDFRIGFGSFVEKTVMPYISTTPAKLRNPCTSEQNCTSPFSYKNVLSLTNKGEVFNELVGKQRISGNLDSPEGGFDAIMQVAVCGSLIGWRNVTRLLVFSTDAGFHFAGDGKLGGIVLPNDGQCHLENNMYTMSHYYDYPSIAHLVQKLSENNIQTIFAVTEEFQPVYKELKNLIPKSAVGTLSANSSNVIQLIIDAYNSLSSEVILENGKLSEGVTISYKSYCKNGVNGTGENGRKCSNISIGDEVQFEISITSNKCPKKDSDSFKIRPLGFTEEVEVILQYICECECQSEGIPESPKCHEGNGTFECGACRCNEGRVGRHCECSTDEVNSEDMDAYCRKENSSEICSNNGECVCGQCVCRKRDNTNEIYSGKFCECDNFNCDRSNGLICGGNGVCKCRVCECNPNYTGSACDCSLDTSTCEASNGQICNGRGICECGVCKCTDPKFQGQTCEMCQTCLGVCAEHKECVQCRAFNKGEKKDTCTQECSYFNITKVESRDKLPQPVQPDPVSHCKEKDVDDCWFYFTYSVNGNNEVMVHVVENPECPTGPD
B1 was tested, and the Kd was 19.7 µM.
For B2, the Kd was 2190 µM.
With B3 the Kd was 1470 µM.
In the case of B4, the Kd is reported as 47.3 µM.
With B5 the Kd was 790 µM.
B6 showed a Kd of 351 µM.
B7 showed a Kd of 59.2 µM.
